Test results as given in paper PMC3434177, “Agnathan VIP, PACAP and Their Receptors: Ancestral Origins of Today's Highly Diversified Forms” (PLoS ONE, 2012).

Columns and labels:
[1] = biological target: inshore hagfish (Eptatretus burgeri) VPAC receptor a (inshore hagfish (Eptatretus burgeri))
hfVPACa = experiment: cAMP accumulation (LANCE cAMP assay) in COS-7 cells transiently transfected with hfVPACa; type: cell-based, inshore hagfish (Eptatretus burgeri); settings: 100 nM peptide, 30 min, at least 4 experiments in duplicates
Description: To investigate the functional properties of the proteins encoded by the agnathan VPAC receptor cDNAs, various vertebrate secretin superfamily peptides at a 100 nM concentration were employed to determine their abilities to stimulate cAMP production in transiently transfected COS-7 cells with hfVPACa or hfVPACb. As jlpVPAC was indicated to be orthologous to hfVPACa by phylogenetic analysis, only the hfVPAC receptors were tested (Figure 4). […] The hfVPACa was further studied using graded concentrations of VIP/PACAP peptides from various vertebrates including sea lamprey (Figure 4C and 4D).
Figure 4 Functional characterization of hfVPACa and hfVPACb. Intracellular cAMP accumulation in response to 100 nM vertebrate superfamily peptides on COS-7 cells transiently transfected with (A) hfVPACa and (B) hfVPACb. Peptide species: slp, sea lamprey; gf, goldfish; h, human; o, ovine; zf, zebrafish; x, Xenopus; ct, catfish and cp, carp. Data represent the mean ± S.E.M. of at least 4 experiments performed in duplicates, p<0.01 is denoted by “*”. […] Data are expressed as the mean ± S.E.M. of at least 6 experiments performed in duplicates. […] Data are expressed as the mean ± S.E.M. of at least 4 experiments. RFU, relative fluorescence units. (G) Shown are representative of confocal fluorescence images of CHO-K1 cells expressing (i) hfVPACa-pEYFP, (ii) hfVPACb-pEYFP and (iii) pEYFP-N1.
African green monkey kidney (COS-7) and Chinese hamster ovary (CHO-K1) cells (ATCC, Manassas, VA) were cultured in 10% FBS/100 U/ml Penicillin/[…] Streptomycin supplemented DMEM and MEM respectively in a 5% (v/v) CO2 humidified chamber at 37°C and passaged twice per week using Trypsin-EDTA (TE) (Invitrogen) on Nunc^TM Surface (Nunc, Denmark) tissue culture flasks. […] For cAMP assays, COS-7 cells were stimulated for 30 mins with either fixed ([…]) or varying (10^−6 to 10^−12 M) concentrations before taking measurements using the LANCE cAMP assay kit (Perkin-Elmer, Waltham, MA) in the Victor x4 multilabel reader (Perkin-Elmer) according to the manufacturer's protocol. […]

[2] = biological target: inshore hagfish (Eptatretus burgeri) VPAC receptor a (inshore hagfish (Eptatretus burgeri)); remark: listed apart in the source
[3] = biological target: inshore hagfish (Eptatretus burgeri) VPAC receptor b (inshore hagfish (Eptatretus burgeri))

Row | Substance | intracellular cAMP accumulation (LANCE cAMP assay) in COS-7 cells transiently expressing hfVPACa, graded peptide concentrations 10^-6 to 10^-12 M, EC50 [1] | ability to stimulate cAMP production at a fixed peptide concentration (hfVPACa) | further results
1 | ovine PACAP-27 (peptide) | 0.895 nM | – | –
2 | GLP-1 | – | weakly or unable to do so | –
3 | glucagon: Glucagon (goldfish), synthetic peptide (HSEGTFSNDYSKYLETRRAQDFVEWLMNS; Glucagon; UniProt P79695 50-78, looked up) | – | weakly or unable to do so | –
4 | GLP-2 | – | weakly or unable to do so | –

The next lines start with results.

Row | intracellular cAMP accumulation (LANCE cAMP assay) in COS-7 cells transiently expressing hfVPACa, graded peptide concentrations 10^-6 to 10^-12 M, EC50 [1] | Substance | ability to stimulate cAMP production at a fixed peptide concentration (hfVPACa) | further results
5 | 5.92 nM | sea lamprey PACAP-27 (peptide) | – | intracellular calcium elevation (Fluo-4 calcium assay) in CHO-K1 cells transiently expressing hfVPACa, graded peptide concentrations 10^-6 to 10^-12 M, EC50 [2]: 1.39 nM; intracellular calcium elevation (Fluo-4 calcium assay) in CHO-K1 cells transiently expressing hfVPACb, graded peptide concentrations 10^-6 to 10^-12 M, EC50 [3]: 27.8 nM
6 | 1.74 nM | human VIP (peptide) | – | –
